In the assay the target is human USP11 N-terminal DUSP-UBL (DU) domains, residues 24-244 (human). The assay can be described thus: SEC; gel filtration of hUSP11DU at concentrations associated with crystallization. A general note: In gel filtration, larger molecules generally elute earlier.

For 1 substance, fraction of dimer results are on record in publication PMC4020902.

“human USP11 N-terminal DUSP-UBL (DU) domains, residues 24-244 (domain or fragment)” showed a fraction of dimer of 5%.
